Reference: the supplement of paper PMC11246515
± gives the standard deviation of the averaged measurements.

Assay: total protein half-life in vivo (active degradation + dilution); higher = more stable protein
[1] = E. coli NCM3722 delta-clpP delta-lon delta-hslV, growth: N-lim chemostat, doubling time 6 h
[2] = E. coli NCM3722 delta-clpP, growth: N-lim chemostat, doubling time 6 h
[3] = E. coli NCM3722 delta-hslV, growth: N-lim chemostat, doubling time 6 h
[4] = E. coli NCM3722 delta-lon, growth: N-lim chemostat, doubling time 6 h
[5] = E. coli NCM3722 delta-smpB, growth: N-lim chemostat, doubling time 6 h
[6] = wild type E. coli NCM3722, growth: C-lim chemostat, doubling time 3 h
[7] = wild type E. coli NCM3722, growth: C-lim chemostat, doubling time 6 h
[8] = wild type E. coli NCM3722, growth: C-lim chemostat, doubling time 12 h
[9] = wild type E. coli NCM3722, growth: N-lim chemostat, doubling time 6 h
[10] = wild type E. coli NCM3722, growth: N-lim chemostat, doubling time 12 h
[11] = wild type E. coli NCM3722, growth: P-lim chemostat, doubling time 6 h
[12] = wild type E. coli NCM3722, growth: P-lim chemostat, doubling time 12 h

Sequence	total protein half-life in vivo [1]	total protein half-life in vivo [2]	total protein half-life in vivo [3]	total protein half-life in vivo [4]	total protein half-life in vivo [5]	total protein half-life in vivo [6]	total protein half-life in vivo [7]	total protein half-life in vivo [8]	total protein half-life in vivo [9]	total protein half-life in vivo [10]	total protein half-life in vivo [11]	total protein half-life in vivo [12]
MNSLFASTARGLEELLKTELENLGAVECQVVQGGVHFKGDTRLVYQSLMWSRLASRIMLPLGECKVYSDLDLYLGVQAINWTEMFNPGATFAVHFSGLNDTIRNSQYGAMKVKDAIVDAFTRKNLPRPNVDRDAPDIRVNVWLHKETASIALDLSGDGLHLRGYRDRAGIAPIKETLAAAIVMRSGWQPGTPLLDPMCGSGTLLIEAAMLATDRAPGLHRGRWGFSGWAQHDEAIWQEVKAEAQTRARKGLAEYSSHFYGSDSDARVIQRARTNARLAGIGELITFEVKDVAQLTNPLPKGPYGTVLSNPPYGERLDSEPALIALHSLLGRIMKNQFGGWNLSLFSASPDLLSCLQLRADKQYKAKNGPLDCVQKNYHVAESTPDSKPAMVAEDYTNRLRKNLKKFEKWARQEGIECYRLYDADLPEYNVAVDRYADWVVVQEYAPPKTIDAHKARQRLFDIIAATISVLGIAPNKLVLKTRERQKGKNQYQKLGEKGEFLEVTEYNAHLWVNLTDYLDTGLFLDHRIARRMLGQMSKGKDFLNLFSYTGSATVHAGLGGARSTTTVDMSRTYLEWAERNLRLNGLTGRAHRLIQADCLAWLREANEQFDLIFIDPPTFSNSKRMEDAFDVQRDHLALMKDLKRLLRAGGTIMFSNNKRGFRMDLDGLAKLGLKAQEITQKTLSQDFARNRQIHNCWLITAA	5.837 ± 0.045 h	6.06 ± 0.79 h	5.92 ± 0.34 h	6.466 ± 0.03 h	5.37 ± 0.12 h	3.13 ± 0.17 h	6.101 ± 0.011 h	10.4 ± 0.11 h	5.428 ± 0.015 h	10.47 ± 0.039 h	6.129 ± 0.044 h	13.1 ± 1.5 h
MFKSFFPKPGTFFLSAFVWALIAVIFWQAGGGDWVARITGASGQIPISAARFWSLDFLIFYAYYIVCVGLFALFWFIYSPHRWQYWSILGTALIIFVTWFLVEVGVAVNAWYAPFYDLIQTALSSPHKVTIEQFYREVGVFLGIALIAVVISVLNNFFVSHYVFRWRTAMNEYYMANWQQLRHIEGAAQRVQEDTMRFASTLENMGVSFINAIMTLIAFLPVLVTLSAHVPELPIIGHIPYGLVIAAIVWSLMGTGLLAVVGIKLPGLEFKNQRVEAAYRKELVYGEDDATRATPPTVRELFSAVRKNYFRLYFHYMYFNIARILYLQVDNVFGLFLLFPSIVAGTITLGLMTQITNVFGQVRGAFQYLINSWTTLVELMSIYKRLRSFEHELDGDKIQEVTHTLS [P0AFY6]	5.51 ± 0.24 h	5.35 ± 0.061 h	5.4 ± 0.62 h	5.41 ± 0.43 h	5.52 ± 0.15 h	–	4.97 ± 1.2 h	11.3 ± 1.3 h	–	8.73 ± 0.38 h	5.77 ± 0.34 h	–
MPSTRYQKINAHHYRHIWVVGDIHGEYQLLQSRLHQLSFFPKIDLLISVGDNIDRGPESLDVLRLLNQPWFTSVKGNHEAMALEAFETGDGNMWLASGGDWFFDLNDSEQQEAIDLLLKFHHLPHIIEITNDNIKYAIAHADYPGSEYLFGKEIAESELLWPVDRVQKSLNGELQQINGADYFIFGHMMFDNIQTFANQIYIDTGSPNSGRLSFYKIK	–	–	–	–	–	–	–	> 16 h	4.06 h	–	–	> 16 h
MKITKITTYRLPPRWMFLKIETDEGVVGWGEPVIEGRARTVEAAVHELGDYLIGQDPSRINDLWQVMYRAGFYRGGPILMSAIAGIDQALWDIKGKVLNAPVWQLMGGLVRDKIKAYSWVGGDRPADVIDGIKTLREIGFDTFKLNGCEELGLIDNSRAVDAAVNTVAQIREAFGNQIEFGLDFHGRVSAPMAKVLIKELEPYRPLFIEEPVLAEQAEYYPKLAAQTHIPLAAGERMFSRFDFKRVLEAGGISILQPDLSHAGGITECYKIAGMAEAYDVTLAPHCPLGPIALAACLHIDFVSYNAVLQEQSMGIHYNKGAELLDFVKNKEDFSMVGGFFKPLTKPGLGVEIDEAKVIEFSKNAPDWRNPLWRHEDNSVAEW [Q6BF17]	3.02 ± 0.17 h	1.75 ± 0.17 h	–	–	1.27 ± 0.18 h	2.67 ± 0.21 h	3.47 ± 0.4 h	5.79 ± 0.88 h	2.5 h	1.84 h	4.36 ± 0.18 h	7.25 ± 0.96 h
MKKPNHSGSGQIRIIGGQWRGRKLPVPDSPGLRPTTDRVRETLFNWLAPVIVDAQCLDCFAGSGALGLEALSRYAAGATLIEMDRAVSQQLIKNLATLKAGNARVVNSNAMSFLAQKGTPHNIVFVDPPFRRGLLEETINLLEDNGWLADEALIYVESEVENGLPTVPANWSLHREKVAGQVAYRLYQREAQGESDAD [P0ADX9]	5.34 ± 0.45 h	4.8 ± 0.15 h	4.49 ± 0.13 h	5.32 ± 0.09 h	5.18 ± 0.6 h	3.08 ± 0.15 h	5.57 ± 0.19 h	10.1 ± 1.5 h	4.49 ± 0.68 h	12.5 h	5.1 ± 0.26 h	11.1 ± 0.63 h
MTYQQAGRIAVLKRILGWVIFIPALISTLISLLKFMNTRQENKEGINAVMLDFTHVMIDMMQANTPFLNLFWYNSPTPNFNGGVNVMFWVIFILIFVGLALQDSGARMSRQARFLREGVEDQLILEKAKGEEGLTREQIESRIVVPHHTIFLQFFSLYILPVICIAAGYVFFSLLGFI	5.41 ± 0.081 h	5.2 ± 0.35 h	5.42 ± 0.091 h	5.94 h	6.11 ± 1.1 h	2.86 ± 0.074 h	–	13.5 ± 0.8 h	5.62 ± 0.27 h	9.96 ± 2.3 h	5.46 ± 0.11 h	12 ± 0.18 h
MAQIFNFSSGPAMLPAEVLKQAQQELRDWNGLGTSVMEVSHRGKEFIQVAEEAEKDFRDLLNVPSNYKVLFCHGGGRGQFAAVPLNILGDKTTADYVDAGYWAASAIKEAKKYCTPNVFDAKVTVDGLRAVKPMREWQLSDNAAYMHYCPNETIDGIAIDETPDFGADVVVAADFSSTILSRPIDVSRYGVIYAGAQKNIGPAGLTIVIVREDLLGKANIACPSILDYSILNDNGSMFNTPPTFAWYLSGLVFKWLKANGGVAEMDKINQQKAELLYGVIDNSDFYRNDVAKANRSRMNVPFQLADSALDKLFLEESFAAGLHALKGHRVVGGMRASIYNAMPLEGVKALTDFMVEFERRHG	5.23 ± 1.6 h	3.87 ± 0.14 h	3.6976 ± 0.003 h	4.479 ± 0.022 h	3.55 ± 0.13 h	3.13 ± 0.2 h	5.71 ± 0.44 h	11.1 ± 2.7 h	3.83 ± 0.23 h	5.898 ± 0.048 h	5.74 ± 0.69 h	11.8 ± 0.42 h
MKISRETLHQLIENKLCQAGLKREHAATVAEVLVYADARGIHSHGAVRVEYYAERISKGGTNREPEFRLEETGPCSAILHADNAAGQVAAKMGMEHAIKTAQQNGVAVVGISRMGHSGAISYFVQQAARAGFIGISMCQSDPMVVPFGGAEIYYGTNPLAFAAPGEGDEILTFDMATTVQAWGKVLDARSRNMSIPDTWAVDKNGVPTTDPFAVHALLPAAGPKGYGLMMMIDVLSGVLLGLPFGRQVSSMYDDLHAGRNLGQLHIVINPNFFSSSELFRQHLSQTMRELNAITPAPGFNQVYYPGQDQDIKQRKAAVEGIEIVDDIYQYLISDALYNTSYETKNPFAQ	–	–	–	–	–	2.88 h	5.52 ± 0.59 h	–	–	–	–	> 16 h
MPAVIDKALDFIGAMDVSAPTPSSMNESTAKGIFKYLKELGVPASAADITARADQEGWNPGFTEKMVGWAKKMETGERSVIKNPEYFSTYMQEELKALV	1.25 ± 0.38 h	0.88 h	–	–	0.51 h	0.644 ± 0.18 h	0.706 h	–	0.681 ± 0.18 h	0.727 ± 0.045 h	0.402 h	1.25 h
MATHFARGILTEGHLISVRLPSQCHQEARNIPPHRQSRFLASRGLLAELMFMLYGIGELPEIVTLPKGKPVFSDKNLPSFSISYAGNMVGVALTTEGECGLDMELQRATRGFHSPHAPDNHTFSSNESLWISKQNDPNEARAQLITLRRSVLKLTGDVLNDDPRDLQLLPIAGRLKCAHVNHVEALCDAEDVLVWSVAVTPTIEKLSVWELDGKHGWKSLPDIHSRANNPTSRMMRFAQLSTVKAFSPN [P0ADM8]	–	4.2 ± 0.51 h	3.24 ± 1.1 h	2.271 ± 0.01 h	2.5 ± 0.27 h	–	3.36 ± 0.66 h	6.92 ± 0.22 h	2.12 ± 0.18 h	3.63 ± 0.21 h	3.22 ± 0.14 h	5.24 ± 0.93 h
MSIKQMPGRVLISLLLSVTGLLSGCASHNENASLLAKKQAQNISQNLPIKSAGYTLVLAQSSGTTVKMTIISEAGTQTTQTPDAFLTSYQRQMCADPTVKLMITEGINYSITINDTRTGNQYQRKLDRTTCGIVKA	–	–	–	–	–	–	–	–	> 8 h	–	3.91 ± 0.68 h	7.3 ± 0.4 h
MTPLVKDIIMSSTRMPALFLGHGSPMNVLEDNLYTRSWQKLGMTLPRPQAIVVVSAHWFTRGTGVTAMETPPTIHDFGGFPQALYDTHYPAPGSPALAQRLVELLAPIPVTLDKEAWGFDHGSWGVLIKMYPDADIPMVQLSIDSSKPAAWHFEMGRKLAALRDEGIMLVASGNVVHNLRTVKWHGDSSPYPWATSFNEYVKANLTWQGPVEQHPLVNYLDHEGGTLSNPTPEHYLPLLYVLGAWDGQEPITIPVEGIEMGSLSMLSVQIG	–	3.18 h	–	–	–	2.85 h	5.76 h	11.3 h	3.76 h	–	5.45 h	10.5 ± 0.65 h
MSIQLNGINCFYGAHQALFDITLDCPQGETLVLLGPSGAGKSSLLRVLNLLEMPRSGTLNIAGNHFDFTKTPSDKAIRDLRRNVGMVFQQYNLWPHLTVQQNLIEAPCRVLGLSKDQALARAEKLLERLRLKPYSDRYPLHLSGGQQQRVAIARALMMEPQVLLFDEPTAALDPEITAQIVSIIRELAETNITQVIVTHEVEVARKTASRVVYMENGHIVEQGDASCFTEPQTEAFKNYLSH [P0AAF6]	6.06 ± 0.7 h	5.54 ± 0.19 h	6.4 h	5.57 ± 0.91 h	4.77 ± 0.37 h	> 4 h	6.19 ± 0.35 h	11.9 h	5.55 ± 0.86 h	10.5 ± 0.48 h	6.11 h	11.6 ± 0.25 h
MTTLSCKVTSVEAITDTVYRVRIVPDAAFSFRAGQYLMVVMDERDKRPFSMASTPDEKGFIELHIGASEINLYAKAVMDRILKDHQIVVDIPHGEAWLRDDEERPMILIAGGTGFSYARSILLTALARNPNRDITIYWGGREEQHLYDLCELEALSLKHPGLQVVPVVEQPEAGWRGRTGTVLTAVLQDHGTLAEHDIYIAGRFEMAKIARDLFCSERNAREDRLFGDAFAFI [P0AEN1]	5.7 ± 0.93 h	4.72 ± 0.087 h	4.19 ± 0.12 h	4.62 ± 0.48 h	4.21 ± 0.8 h	2.74 ± 0.19 h	5.78 ± 0.43 h	8.71 ± 1.9 h	4.2 ± 0.26 h	7.18 ± 0.22 h	4.62 ± 1 h	9.49 ± 0.3 h
MMTKTQINKLIKMMNDLDYPFEAPLKESFIESIIQIEFNSNSTNCLEKLCNEVSILFKNQPDYLTFLRAMDGFEVNGLRLFSLSIPEPSVKNLFAVNEFYRNNDDFINPDLQERLVIGDYSISIFTYDIKGDAANLLI	4.14 h	–	–	–	–	–	–	–	–	–	–	–
MVTHRQRYREKVSQMVSWGHWFALFNILLSLVIGSRYLFIADWPTTLAGRIYSYVSIIGHFSFLVFATYLLILFPLTFIVGSQRLMRFLSVILATAGMTLLLIDSEVFTRFHLHLNPIVWQLVINPDENEMARDWQLMFISVPVILLLELVFATWSWQKLRSLTRRRRFARPLAAFLFIAFIASHVVYIWADANFYRPITMQRANLPLSYPMTARRFLEKHGLLDAQEYQRRLIEQGNPDAVSVQYPLSELRYRDMGTGQNVLLITVDGLNYSRFEKQMPALAGFAEQNISFTRHMSSGNTTDNGIFGLFYGISPSYMDGILSTRTPAALITALNQQGYQLGLFSSDGFTSPLYRQALLSDFSMPSVRTQSDEQTATQWINWLGRYAQEDNRWFSWVSFNGTNIDDSNQQAFARKYSRAAGNVDDQINRVLNALRDSGKLDNTVVIITAGRGIPLSEEEETFDWSHGHLQVPLVIHWPGTPAQRINALTDHTDLMTTLMQRLLHVSTPASEYSQGQDLFNPQRRHYWVTAADNDTLAITTPKKTLVLNNNGKYRTYNLRGERVKDEKPQLSLLLQVLTDEKRFIAN [P0AD27]	6.51 ± 0.23 h	–	–	5.92 ± 0.086 h	6.0496 ± 0.0024 h	3.37 ± 0.44 h	5.62 ± 0.63 h	12.8 ± 0.27 h	6.18 ± 0.89 h	12.9 ± 1.1 h	6.34 ± 0.1 h	11.8 ± 0.67 h
